Reference: patent publication US20120165265A1, “Calcium Signaling Modulators Involving STIM and ORAI Proteins” (priority 2009, published 2012)

Legend:
CRAC channels = biological target: T1, CRAC channels (Homo sapiens, UniProt Q96D31); assay: [Ca2+]i imaging in HEK 293 cells expressing STIM1 fragment and Orai1; format: cell-based; details: for effect on CAD-induced sustained elevation of [Ca2+]i: HEK 293 cells expressing Orai1 and CAD
T1 construct: expressed in transfected cells; host or cells: HEK 293
T1 sequence (Q96D31 whole entry, the tested form may be a part): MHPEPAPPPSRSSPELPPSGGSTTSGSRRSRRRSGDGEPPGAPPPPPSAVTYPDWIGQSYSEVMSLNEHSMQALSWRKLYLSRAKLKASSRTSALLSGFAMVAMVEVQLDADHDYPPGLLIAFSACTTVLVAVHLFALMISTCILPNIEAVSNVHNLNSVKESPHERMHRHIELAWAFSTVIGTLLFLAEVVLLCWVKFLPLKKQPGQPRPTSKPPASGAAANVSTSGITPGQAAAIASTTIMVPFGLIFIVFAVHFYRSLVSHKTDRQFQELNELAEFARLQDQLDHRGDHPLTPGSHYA
Protocol: Ca^2+ Imaging. For FIG. 2, cells were loaded at 37° C. in DMEM with 1 μM fura-2/AM for 30 min. Ratiometric Ca2+ imaging was performed at 340 and 380 nm in 2 mM Ca2+ Ringer's solution with a Nikon Eclipse 2000-U inverted microscope equipped with a fluorescent arc lamp, excitation filter wheel, and a Hamamatsu Orca CCD camera. Images were collected using Openlab (Improvision) and analyzed using Igor Pro.
To determine if CAD activates store operated Ca^2+ influx in cells, we measured [Ca^2+]i in HEK 293 cells expressing CAD and Orai1.

Orai1 [1] = biological target: T2, Orai1 (Homo sapiens, UniProt Q96D31); assay: Whole-cell patch clamp recording of ICRAC in transfected HEK 293 cells; format: cell-based; parameters: expressed in transfected cells; host or cells: HEK 293
T2 sequence (Q96D31 whole entry): as the sequence (Q96D31 whole entry, the tested form may be a part) above
Protocol: Electrophysiology. HEK 293 cells were transfected 8-24 h prior to electrophysiology experiments with STIM1- and Orai1-derived constructs in a 1:1 mass ratio using Lipofectamine 2000. […] ICRAC in cells cultured without LaCl3 was similar to that in cells cultured with LaCl3, but most cells without LaCl3 died soon after break-in.
Currents were recorded using standard whole-cell patch clamp techniques (Prakriya and Lewis, 2001). Pipettes of resistance 2-5 MΩ were filled with an internal solution containing (in mM) 150 Cs aspartate, 8 MgCl2, 10 EGTA, and 10 HEPES (pH 7.2 with CsOH). Currents were sampled at 5 kHz and filtered at 2 kHz, and all voltages were corrected for the junction potential of the pipette solution relative to Ringer's in the bath (−13 mV).
Patch-clamp Experiments. Pipette-membrane seals were formed in 2 mM Ca^2+ Ringer's solution. After break-in to the whole-cell configuration, voltage stimuli consisting of a 100-ms step to −100 mV followed by a 100-ms ramp from −100 to +100 mV were delivered every 5 s from the holding potential of +30 mV. After the currents reached a steady level (˜300 s for wild-type STIM1), the external solution was changed via a multibarrel local perfusion pipette to a high-Ca^2+ Ringer's containing (in mM) 130 NaCl, 4.5 KCl, 20 CaCl2, 1 MgCl2, 10 D-glucose, and 5 HEPES (pH 7.4 with NaOH). All data were leak-corrected using the current elicited in 20 mM Ca^2+ Ringer's+10 μM LaCl3 at the end of the each experiment. LaCl3 and 2-APB were added directly to parent solutions on the day of the experiment from 10 mM and 100 mM stocks in H2O and DMSO, respectively.
As a definitive test for CRAC channel activation, we conducted whole-cell patch clamp recordings from HEK 293 cells transiently transfected with myc-Orai1 and either YFP-STIM1 or YFP-CAD. In cells expressing full length YFP-STIM1, ICRAC appeared over several minutes following break-in, consistent with the typical slow activation seen in response to passive store depletion (FIG. 2D). […] In contrast, inward current was present from the moment of break-in in cells expressing YFP-CAD (FIG. 2E). This current was identified as ICRAC based on its dependence on extracellular Ca^2+, inward rectification, sequential enhancement and inhibition by 2-APB, and inhibition by La^3+ (FIG. 2E and FIG. 10 C, D). ICRAC was not observed at break-in in HEK 293 cells transfected with YFP or YFP-CAD in the absence of Orai1 (FIG. 2F), consistent with the low level of endogenous STIM1 and Orai1 in these cells. […] Inactivation was restored by addition of STIM1 residues carboxy-terminal to CAD.

CAD [2] = biological target: T3, CAD (Homo sapiens, UniProt Q13586); assay: Yeast split ubiquitin assay, Orai1 fragments with CAD; format: binding; details: NubG-Orai1 fragment with CAD-Cub-LV in yeast
T3 construct: For STIM1 342-448 (CAD); expressed in transfected cells; host or cells: HEK 293T
T3 sequence (Q13586 342-448): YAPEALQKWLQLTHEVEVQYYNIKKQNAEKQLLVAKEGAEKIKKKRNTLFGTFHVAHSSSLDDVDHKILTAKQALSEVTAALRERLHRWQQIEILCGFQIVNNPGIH
Protocol: Split-Ubiquitin Yeast Two Hybrid Assay. Screening was performed according to the manufacturer's instructions (Dualsystems Biotech). Transformed yeast were selected on media lacking Trp and Leu (-TL). Interaction was observed by cell growth on plates lacking Trp, Leu, and His (TLH) in the presence of 3-aminotriazole (3-AT). Protein interactions were also assessed by measuring lacZ activity using the chromogenic substrate X-gal (5-bromo-4-chloro-3-indolyl-β-galactopyranoside).
Split-Ubiquitin Yeast Two Hybrid Assay. To generate fusion proteins with the N-terminal half of ubiquitin (Nub), full-length or fragments of Orai1 were amplified by PCR and cloned into the pDL2-Nubx vector (Dualsystems Biotech). The Nub sequence in the pDL2-Nubx plasmid contains a point mutation (NubG) that abolishes the spontaneous association of Nub to the C-terminal half of ubiquitin (Cub). The CAD was subcloned into the pAMBV4 vector, which contains Cub fused to a chimeric transcription factor consisting of the DNA binding domain from LexA and the VP16 transactivation domain.
(§1) STIM1-CAD BINDS TO THE N- AND C-TERMINI OF ORAI1. To identify regions of Orai1 important for activation by CAD, we characterized the binding of CAD to Orai1 using two approaches. First we expressed fusions of NubG with the N-terminus, the II-III cytoplasmic loop and the C-terminus of Orai1 in yeast together with different CAD-Cub-LV constructs. […] Based on the level of b-gal activity, CAD appears to interact with the Orai1 C-terminus with a higher affinity than with the N-terminus. We next expressed fusions of YFP with the N-terminus, the II-III loop and the C-terminus of Orai1 in HEK 293T cells together with Flag-myc-CAD.
(§2) To explore the interaction between the N-terminus of Orai1 and CAD in more detail we mapped the subregion within the N-terminus of Orai1 that is responsible for CAD binding, using both the split ubiquitin and HEK 293T co-immunoprecipitation assays.

CAD [3] = biological target: T3, CAD; assay: Co-immunoprecipitation of Orai1 fragments with CAD in HEK 293T cells; format: binding; details: YFP-tagged Orai1 fragment with Flag-myc-CAD in HEK 293T cells
Protocol: (§3) Immunoprecipitation and Immunoblot Analysis. Transfected HEK 293T cells (12-24 h) were washed with PBS and lysed in 50 mM Tris-HCl pH 7.5, 150 mM NaCl, 1% Triton X-100, and protease inhibitors. Lysates were spun at 12,000 rpm for 10 min, and the supernatant was incubated with anti-Flag M2 agarose beads (Sigma), or anti-myc or -HA antibody followed by IgG agarose beads (Pierce). Lysates and immunoprecipitates were subjected to SDS-PAGE, probed with HRP-conjugated secondary antibody and detected by enhanced chemiluminescence (Pierce).
as §1, §2

Orai1 [4] = biological target: T2, Orai1; assay: Co-immunoprecipitation with Orai1 in HEK 293T cells; format: binding; parameters: expressed in transfected cells; host or cells: HEK 293; details: 150 mM salt, 1% Triton X-100
Protocol: as §3
CAD Associates with Orai1 in vivo and in vitro. Because cytosolic CAD is a potent activator of Orai1 channels and is not associated with the ER, we hypothesized that CAD binds to Orai1. To test this idea, we first expressed YFP-CAD with or without myc-Orai1 in HEK 293 cells and examined its intracellular localization. […] To provide additional evidence that CAD and Orai1 are part of the same protein complex we expressed Flag-tagged CAD and GFP-tagged Orai1 in HEK 293T cells and immunoprecipitated CAD with anti-Flag antibodies. GFP-myc-Orai1 was detected in the immunoprecipitates from cells co-expressing CAD and Orai1 but not from cells expressing CAD or Orai1 alone (FIG. 3B).
Thus, CAD and Orai1 form a protein complex in mammalian cells.

Compound	interaction with CAD (b-gal, growth without histidine) (CAD [2])	co-immunoprecipitation with CAD (CAD [3])	also measured
NCCOB(c1ccccc1)c1ccccc1 [2-APB, 2-Aminoethoxydiphenylborate, reference compound]			effect on CAD-induced sustained elevation of [Ca2+]i (CRAC channels; 100 μM 2-APB): blocked; effect on constitutive CAD-dependent ICRAC (Orai1 [1]; YFP-CAD+myc-Orai1 HEK 293 cell, 50 μM 2-APB, 20 mM Ca2+): increase in CAD-dependent current followed by a slower inhibition
[Cl][La]([Cl])[Cl] [La^3+, LaCl3, reference compound]			effect on CAD-induced sustained elevation of [Ca2+]i (CRAC channels; 10 μM La3+): blocked; effect on CAD-supported current (Orai1 [1]; YFP-CAD+myc-Orai1 cell, 10 μM LaCl3, 20 mM Ca2+o): rapid inhibition of current
C-terminus of Orai1: Orai1 C-terminal fragment, SEQ ID NO:6 (HFYRSLVSHKTDRQFQELNELAEFARLQDQLDHRGDHPLTPGSHYA; H. sapiens)	strong interaction	interacts	
CAD (342-440): CAD peptide with the last 8 aa deleted			[Ca2+]i / CRAC channel activation (CRAC channels; HEK 293 cells coexpressing construct and Orai1, no store depletion): eliminates its ability to activate CRAC channels; co-immunoprecipitation with Orai1 (Orai1 [4]): retained the ability to bind to Orai1
II-III loop of Orai1: Orai1 II-III cytoplasmic loop aa 142-177, SEQ ID NO:5	lack of interaction	not	
N-terminus of Orai1 (aa 1-91): Orai1 N-terminal fragment aa 1-91, SEQ ID NO:2	weaker interaction	only very weakly	co-immunoprecipitation with CAD (CAD [3]; listed as N-terminus): interacts
Orai148-70: Orai1 fragment aa 48-70 (SAVTYPDWIGQSYSEVMSLNEHS; UniProt Q96D31 48-70, looked up, fragment)	not		
Orai148-91: Orai1 N-terminal fragment aa 48-91, SEQ ID NO:3	interacted strongly	co-immunoprecipitated	co-immunoprecipitation with CAD (CAD [3]; listed as Orai1-NT(48-91)): co-immunoprecipitates
Orai168-91: Orai1 fragment aa 68-91	interacted strongly		
YFP-CT-STIM1: YFP-tagged CT-STIM1 (236-685) [reference compound]			constitutive ICRAC (Orai1 [1]; HEK 293 cells cotransfected with construct and myc-Orai1, from break-in): failed to activate constitutive ICRAC
